Experimental data as given in paper PMC4812251.

Substrate: CC(=O)O
Test: purified protein
Conditions: ATP 10 mM, CoA 0.1 mM, MgCl2 5 mM, acetate salt 2.5-80 mM

B1: DtACS (Dunaliella tertiolecta) (protein)
chain: MKCSALPAGSRPQALATHTSMQAPLLLRSLAPSVPKLAQPAGTPLVHSSLPCYRKSRSCSHLASASSTAPGSTTMKPQPLLTNFIQSKEEYDALYARSIADPASFWGDVAEQFHWEKKWDPDHHSFNFDVTKGPINVEWFKGGFTNICYNALDRHVMTGHGNQHCMLFEGNEPGSDGAMTYTQVLDEVCRLANWMKAQGIGKGDCVAIYMPMVMQLPIAMLACARIGAVHSVVFGGFSADALAGRMEDCKARVLLTCNGGMRATKKIELKQIADQAIEMCASRGHTVDSVLVFANHKDGVAGAEAAGTPFTQGRDAWWQPTLAEFPALCDVAWVPAEHPLFLLYTSGSTGKPKGVLHTTGGYMVYAATTTKHAFQLQPGDVFWCTADCGWITGHSYLAYGPLLNRAVSVVFEGVPTHPTPARSWEIIDKYQVKQFYTAPTALRSLMRSGDEWLSSTSRQSLQVLGTVGEPINPEAWHWFHDLVGNGRCPVVDTWWQTETGGHMILPLPRAWPAKPGSATLPFFGVEPVILDDKGVELQGECEGLLMMRRPWPSTLRSVYGDHKRYEENYFGPYPGYYFTGDGARRDKDGYYWITGRVDDVINVSGHRIGTAEVESAIAAHHDCAEAAVAGYEHPVKGQGIYAFVVLKEGVVPNDQLKKEMWTNVRTTIGAFAAPDVIHWAPGLPKTRSGKIMRRVLRKIAGGQENELGDTSTLADPSIVRQLIETRN
- Km (Tris-Cl pH 8.0, 37 °C (general assay)): 3.59 mM
- Km (Tris-Cl pH 8.0, 37 °C (general assay; mix lists 10 mM potassium acetate as substrate)): 4.66 mM
